This is an account of results in patent US20090053725 (United States as represented by Secretary of the Air Force, published 2009).

In data set [1] the target is Ovalbumin (UniProt P01012 P01012:2-386). In words: control protein, no fluorescence increase; same conditions; Example 1 likewise no increase. Particulars: tags: Sigma-Aldrich; immobilized on maleic anhydride plate; label: Birch Yellow T1 Evitag quantum dot on plus strand; BHQ2 quencher on negative strand; partial duplex, 3' 19 nt of the aptamer paired, 5' single-stranded overhang.

The target in data set [2] is Shiga toxin (UniProt Q9FBI2;Q7BQ98 Q9FBI2:23-315,Q7BQ98:21-89).
Shiga toxin, sequence (Q9FBI2 23-315, chain 1 of 2): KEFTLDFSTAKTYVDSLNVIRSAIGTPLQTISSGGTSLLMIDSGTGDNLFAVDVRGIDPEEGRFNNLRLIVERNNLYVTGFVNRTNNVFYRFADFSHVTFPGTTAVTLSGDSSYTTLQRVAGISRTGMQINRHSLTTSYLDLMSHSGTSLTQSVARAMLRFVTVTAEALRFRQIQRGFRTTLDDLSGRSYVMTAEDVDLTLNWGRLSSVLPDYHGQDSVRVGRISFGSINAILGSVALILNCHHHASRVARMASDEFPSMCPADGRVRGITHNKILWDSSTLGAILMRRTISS
Shiga toxin, sequence (Q7BQ98 21-89, chain 2 of 2): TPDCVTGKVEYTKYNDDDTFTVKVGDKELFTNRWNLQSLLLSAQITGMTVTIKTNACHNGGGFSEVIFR

Ovalbumin, sequence (P01012 2-386, one chain of several): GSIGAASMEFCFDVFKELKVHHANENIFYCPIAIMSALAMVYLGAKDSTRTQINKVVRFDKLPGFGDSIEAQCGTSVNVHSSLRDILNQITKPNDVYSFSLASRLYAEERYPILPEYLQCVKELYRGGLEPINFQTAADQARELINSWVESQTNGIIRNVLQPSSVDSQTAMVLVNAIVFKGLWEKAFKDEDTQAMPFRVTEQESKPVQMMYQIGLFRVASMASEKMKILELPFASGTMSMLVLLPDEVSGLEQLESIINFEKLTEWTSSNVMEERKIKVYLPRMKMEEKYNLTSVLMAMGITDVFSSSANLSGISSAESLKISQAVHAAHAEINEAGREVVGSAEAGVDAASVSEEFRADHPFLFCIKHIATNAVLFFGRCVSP

B1: STJ-9 annealed quenched complex (Plus STJ-9 / Negative STJ-9) (dsDNA)
DNA 1: GGTAACTAGCATTCATTTCCCACACCCGTCCCGTCCATAT
DNA 2: ATATGGACGGGACGGGTGT
modifications: 3' amine on plus strand; 5' BHQ2 on negative strand
Consider B1, for which, in data set [1], the binding result was “no binding”.
Turning to GGTAACTAGCATTCATTTCCCACACCCGTCCCGTCCATAT (ssDNA) [Plus STJ-9], in data set [2], the binding result is listed as “binds”.
